Columns and labels:
[1] = biological target: T1, P element transposase (delta 2-3) (UniProt Q7M3K2); assay: cell_activity; details: germline remobilization in Drosophila, delta 2-3 at 99B
T1 sequence: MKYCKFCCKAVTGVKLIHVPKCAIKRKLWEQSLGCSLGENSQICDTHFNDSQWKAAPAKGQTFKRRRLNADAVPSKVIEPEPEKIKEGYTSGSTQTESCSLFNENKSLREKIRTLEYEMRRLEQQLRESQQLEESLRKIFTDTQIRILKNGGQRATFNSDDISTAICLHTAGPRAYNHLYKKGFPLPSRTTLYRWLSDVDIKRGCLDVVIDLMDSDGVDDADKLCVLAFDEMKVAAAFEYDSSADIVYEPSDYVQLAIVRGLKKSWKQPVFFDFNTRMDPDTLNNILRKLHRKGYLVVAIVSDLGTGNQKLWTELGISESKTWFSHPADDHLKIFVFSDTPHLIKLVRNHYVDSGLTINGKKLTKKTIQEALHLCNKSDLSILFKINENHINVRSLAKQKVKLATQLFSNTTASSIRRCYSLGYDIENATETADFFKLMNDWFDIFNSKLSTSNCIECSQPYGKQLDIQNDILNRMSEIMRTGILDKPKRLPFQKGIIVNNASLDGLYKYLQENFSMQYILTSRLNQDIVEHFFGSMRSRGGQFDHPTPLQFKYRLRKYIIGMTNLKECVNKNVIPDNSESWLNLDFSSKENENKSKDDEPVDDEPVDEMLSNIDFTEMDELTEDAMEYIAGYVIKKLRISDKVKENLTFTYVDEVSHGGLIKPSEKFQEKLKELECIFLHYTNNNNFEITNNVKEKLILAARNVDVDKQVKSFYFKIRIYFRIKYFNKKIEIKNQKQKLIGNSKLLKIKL

piggyBac transposase = assay: cell_activity; details: germline remobilization rate in Drosophila with constitutive transposase; TTAA target; 10% with heat shock helper

XP (P element) transposon
activity [1]: 50%

piggyBac transposon pB[w+]
activity (piggyBac transposase): 60%

From US20050229265
